Laboratory results taken from the supplement of paper PMC11246515.
± gives the standard deviation of the averaged measurements.

Test: total protein half-life in vivo (active degradation + dilution); higher = more stable protein
[1] = E. coli NCM3722 delta-clpP delta-lon delta-hslV, growth: N-lim chemostat, doubling time 6 h
[2] = wild type E. coli NCM3722, growth: C-lim chemostat, doubling time 12 h
[3] = wild type E. coli NCM3722, growth: C-lim chemostat, doubling time 3 h
[4] = E. coli NCM3722 delta-clpP, growth: N-lim chemostat, doubling time 6 h
[5] = E. coli NCM3722 delta-hslV, growth: N-lim chemostat, doubling time 6 h
[6] = E. coli NCM3722 delta-smpB, growth: N-lim chemostat, doubling time 6 h
[7] = wild type E. coli NCM3722, growth: C-lim chemostat, doubling time 6 h
[8] = wild type E. coli NCM3722, growth: N-lim chemostat, doubling time 6 h
[9] = wild type E. coli NCM3722, growth: N-lim chemostat, doubling time 12 h
[10] = wild type E. coli NCM3722, growth: P-lim chemostat, doubling time 6 h
[11] = wild type E. coli NCM3722, growth: P-lim chemostat, doubling time 12 h
[12] = E. coli NCM3722 delta-lon, growth: N-lim chemostat, doubling time 6 h

Sequence	total protein half-life in vivo [1] [h]	total protein half-life in vivo [2] [h]	total protein half-life in vivo [3] [h]	total protein half-life in vivo [4] [h]	total protein half-life in vivo [5] [h]	total protein half-life in vivo [6] [h]	total protein half-life in vivo [7] [h]	total protein half-life in vivo [8] [h]	total protein half-life in vivo [9] [h]	total protein half-life in vivo [10] [h]	total protein half-life in vivo [11] [h]	total protein half-life in vivo [12] [h]
MSLPHLSLADARNLHLAAQGLLNKPRRRASLEDIPATISRMSLLQIDTINIVARSPYLVLFSRLGNYPAQWLDESLARGELMEYWAHEACFMPRSDFRLIRHRMLAPEKMGWKYKDAWMQEHEAEIAQLIQHIHDKGPVRSADFEHPRKGASGWWEWKPHKRHLEGLFTAGKVMVIERRNFQRVYDLTHRVMPDWDDERDLVSQTEAEIIMLDNSARSLGIFREQWLADYYRLKRPALAAWREARAEQQQIIAVHVEKLGNLWLHDDLLPLLERALAGKLTATHSAVLSPFDPVVWDRKRAEQLFDFSYRLECYTPAPKRQYGYFVLPLLHRGQLVGRMDAKMHRQTGILEVISLWLQEGIKPTTTLQKGLRQAITDFANWQQATRVTLGCCPQGLFTDCRTGWEIDPVA	6.77	–	–	–	–	–	–	–	–	–	–	–
MSLPSIPSFVLSGLLLICLPFSSFASATTSHISFSYAARQRMQNRARLLKQYQTHLKKQASYIVEGNAESKRALRQHNREQIKQHPEWFPAPLKASDRRWQALAENNHFLSSDHLHNITEVAIHRLEQQLGKPYVWGGTRPDKGFDCSGLVFYAYNKILEAKLPRTANEMYHYRRATIVANNDLRRGDLLFFHIHSREIADHMGVYLGDGQFIESPRTGETIRISRLAEPFWQDHFLGARRILTEETIL	–	3.06	–	–	–	–	–	–	–	–	–	–
MSLSRAAIVDQLKEIVGADRVITDETVLKKNSIDRFRKFPDIHGIYTLPIPAAVVKLGSTEQVSRVLNFMNAHKINGVPRTGASATEGGLETVVENSVVLDGSAMNQIINIDIENMQATAQCGVPLEVLENALREKGYTTGHSPQSKPLAQMGGLVATRSIGQFSTLYGAIEDMVVGLEAVLADGTVTRIKNVPRRAAGPDIRHIIIGNEGALCYITEVTVKIFKFTPENNLFYGYILEDMKTGFNILREIMVEGYRPSIARLYDAEDGTQHFTHFADGKCVLIFMAEGNPRIAKVTGEGIAEIVARYPQCQRVDSKLIETWFNNLNWGPDKVAAERVQILKTGNMGFTTEVSGCWSCIHEIYESVINRIRTEFPHADDITMLGGHSSHSYQNGTNMYFVYDYNVVDCKPEEEIDKYHNPLNKIICEETIRLGGSMVHHHGIGKHRVHWSKLEHGSAWALLEGLKKQFDPNGIMNTGTIYPIEK	–	–	3.54	–	–	–	–	–	–	–	–	–
MSLTELTGNPRHDQLLMLIAERGYMNIDELANLLDVSTQTVRRDIRKLSEQGLITRHHGGAGRASSVVNTAFEQREVSQTEEKKAIAEAVADYIPDGSTIFITIGTTVEHVARALLNHNHLRIITNSLRVAHILYHNPRFEVMVPGGTLRSHNSGIIGPSAASFVADFRADYLVTSVGAIESDGALMEFDVNEANVVKTMMAHARNILLVADHTKYHASAAVEIGNVAQVTALFTDELPPAALKSRLQDSQIEIILPQEDA	5.99 ± 0.15	10.7 ± 0.88	2.8 ± 0.12	4.97 ± 0.17	5.17 ± 0.35	4.98 ± 0.86	5.113 ± 0.0071	4.89 ± 1	8.59	4.9 ± 0.25	8.679 ± 0.03	–
MSLTLTLTGTGGAQGVPAWGCECAACARARRSPQYRRQPCSGVVKFNDAITLIDAGLHDLADRWSPGSFQQFLLTHYHMDHVQGLFPLRWGVGDPIPVYGPPDEQGCDDLFKHPGLLDFSHTVEPFVVFDLQGLQVTPLPLNHSKLTFGYLLETAHSRVAWLSDTAGLPEKTLKFLRNNQPQVMVMDCSHPPRADAPRNHCDLNTVLALNQVIRSPRVILTHISHQFDAWLMENALPSGFEVGFDGMEIGVA	6.78	9.33 ± 0.34	2.37	4.09 ± 0.048	4.36 ± 0.11	4.8	4.07	4.3	7.1	4.41	8.54 ± 2.5	4.56 ± 0.17
MSNFINIHVLISHSPSCLNRDDMNMQKDAIFGGKRRVRISSQSLKRAMRKSGYYAQNIGESSLRTIHLAQLRDVLRQKLGERFDQKIIDKTLALLSGKSVDEAEKISADAVTPWVVGEIAWFCEQVAKAEADNLDDKKLLKVLKEDIAAIRVNLQQGVDIALSGRMATSGMMTELGKVDGAMSIAHAITTHQVDSDIDWFTAVDDLQEQGSAHLGTQEFSSGVFYRYANINLAQLQENLGGASREQALEIATHVVHMLATEVPGAKQRTYAAFNPADMVMVNFSDMPLSMANAFEKAVKAKDGFLQPSIQAFNQYWDRVANGYGLNGAAAQFSLSDVDPITAQVKQMPTLEQLKSWVRNNGEA	6.17 ± 0.55	–	2.13	2.77	–	–	4.22	–	–	5.28	11.4 ± 1.2	2.71
MSNKNVNVRKSQEITFCLLAGILMFMAMMVAGRAEAGVALGATRVIYPAGQKQEQLAVTNNDENSTYLIQSWVENADGVKDGRFIVTPPLFAMKGKKENTLRILDATNNQLPQDRESLFWMNVKAIPSMDKSKLTENTLQLAIISRIKLYYRPAKLALPPDQAAEKLRFRRSANSLTLINPTPYYLTVTELNAGTRVLENALVPPMGESTVKLPSDAGSNITYRTINDYGALTPKMTGVME	4.77	> 16	–	–	–	5.38 ± 0.18	5.55 ± 0.66	7.84	14.8	5.67	13.2 ± 3	–
MSNKPFHYQAPFPLKKDDTEYYLLTSEHVSVSEFEGQEILKVAPEALTLLARQAFHDASFMLRPAHQQQVADILRDPEASENDKYVALQFLRNSDIAAKGVLPTCQDTGTAIIVGKKGQRVWTGGGDEAALARGVYNTYIEDNLRYSQNAPLDMYKEVNTGTNLPAQIDLYAVDGDEYKFLCIAKGGGSANKTYLYQETKALLTPGKLKNYLVEKMRTLGTAACPPYHIAFVIGGTSAETNLKTVKLASAKYYDELPTEGNEHGQAFRDVELEKELLIEAQNLGLGAQFGGKYFAHDIRVIRLPRHGASCPVGMGVSCSADRNIKAKINRQGIWIEKLEHNPGKYIPEELRKAGEGEAVRVDLNRPMKEILAQLSQYPVSTRLSLNGTIIVGRDIAHAKLKERMDNGEGLPQYIKDHPIYYAGPAKTPEGYASGSLGPTTAGRMDSYVDQLQAQGGSMIMLAKGNRSQQVTDACKKHGGFYLGSIGGPAAVLAQGSIKSLECVEYPELGMEAIWKIEVEDFPAFILVDDKGNDFFQQIQLTQCTRCVK [P0AC33]	4.02 ± 1.1	7.67 ± 1.4	3.13 ± 0.2	2.82 ± 0.17	2.53 ± 0.47	2.36 ± 0.071	4.39 ± 0.14	2.51 ± 0.22	3.37 ± 0.11	5.02 ± 0.12	8.932 ± 0.051	2.86 ± 0.043
MSNNALQTIINARLPGEEGLWQIHLQDGKISAIDAQSGVMPITENSLDAEQGLVIPPFVEPHIHLDTTQTAGQPNWNQSGTLFEGIERWAERKALLTHDDVKQRAWQTLKWQIANGIQHVRTHVDVSDATLTALKAMLEVKQEVAPWIDLQIVAFPQEGILSYPNGEALLEEALRLGADVVGAIPHFEFTREYGVESLHKTFALAQKYDRLIDVHCDEIDDEQSRFVETVAALAHHEGMGARVTASHTTAMHSYNGAYTSRLFRLLKMSGINFVANPLVNIHLQGRFDTYPKRRGITRVKEMLESGINVCFGHDDVFDPWYPLGTANMLQVLHMGLHVCQLMGYGQINDGLNLITHHSARTLNLQDYGIAAGNSANLIILPAENGFDALRRQVPVRYSVRGGKVIASTQPAQTTVYLEQPEAIDYKR	6.27 ± 0.14	14.3 ± 0.34	2.9 ± 0.17	5.838 ± 0.02	5.57 ± 0.45	5.64 ± 0.32	5.8 ± 0.1	5.43 ± 0.29	12.3 ± 1.4	–	12.7 ± 0.35	6.13 ± 0.073
MSNNEFHQRRLSATPRGVGVMCNFFAQSAENATLKDVEGNEYIDFAAGIAVLNTGHRHPDLVAAVEQQLQQFTHTAYQIVPYESYVTLAEKINALAPVSGQAKTAFFTTGAEAVENAVKIARAHTGRPGVIAFSGGFHGRTYMTMALTGKVAPYKIGFGPFPGSVYHVPYPSDLHGISTQDSLDAIERLFKSDIEAKQVAAIIFEPVQGEGGFNVAPKELVAAIRRLCDEHGIVMIADEVQSGFARTGKLFAMDHYADKPDLMTMAKSLAGGMPLSGVVGNANIMDAPAPGGLGGTYAGNPLAVAAAHAVLNIIDKESLCERANQLGQRLKNTLIDAKESVPAIAAVRGLGSMIAVEFNDPQTGEPSAAIAQKIQQRALAQGLLLLTCGAYGNVIRFLYPLTIPDAQFDAAMKILQDALSD	3.77 ± 0.53	4.33 ± 0.44	2.883 ± 0.027	–	1	0.902 ± 0.068	2.81 ± 0.47	1.25	1.67	3.46 ± 0.35	5.88 ± 0.5	–
MSNNIRIEEDLLGTREVPADAYYGVHTLRAIENFYISNNKISDIPEFVRGMVMVKKAAAMANKELQTIPKSVANAIIAACDEVLNNGKCMDQFPVDVYQGGAGTSVNMNTNEVLANIGLELMGHQKGEYQYLNPNDHVNKCQSTNDAYPTGFRIAVYSSLIKLVDAINQLREGFERKAVEFQDILKMGRTQLQDAVPMTLGQEFRAFSILLKEEVKNIQRTAELLLEVNLGATAIGTGLNTPKEYSPLAVKKLAEVTGFPCVPAEDLIEATSDCGAYVMVHGALKRLAVKMSKICNDLRLLSSGPRAGLNEINLPELQAGSSIMPAKVNPVVPEVVNQVCFKVIGNDTTVTMAAEAGQLQLNVMEPVIGQAMFESVHILTNACYNLLEKCINGITANKEVCEGYVYNSIGIVTYLNPFIGHHNGDIVGKICAETGKSVREVVLERGLLTEAELDDIFSVQNLMHPAYKAKRYTDESEQ [P0AC38]	5.54 ± 0.31	6.58 ± 0.62	2.42 ± 0.11	5.5 ± 1.1	1.13 ± 0.052	1.68 ± 0.45	4.284 ± 0.012	3.1 ± 0.18	2.93 ± 0.087	4.79 ± 0.14	9.237 ± 0.036	1.68 ± 0.16
MSNQEPATILLIDDHPMLRTGVKQLISMAPDITVVGEASNGEQGIELAESLDPDLILLDLNMPGMNGLETLDKLREKSLSGRIVVFSVSNHEEDVVTALKRGADGYLLKDMEPEDLLKALHQAAAGEMVLSEALTPVLAASLRANRATTERDVNQLTPRERDILKLIAQGLPNKMIARRLDITESTVKVHVKHMLKKMKLKSRVEAAVWVHQERIF [P0AF28]	6.09 ± 2.1	10.1 ± 1.3	3.06 ± 0.19	5.77 ± 2.1	4.05 ± 0.41	4.166 ± 0.011	5.03 ± 0.15	4.19 ± 0.087	7.26 ± 0.29	5.39 ± 0.99	9.74 ± 1.3	4.81 ± 0.33
MSNQFGDTRIDDDLTLLSETLEEVLRSSGDPADQKYVELKARAEKALDDVKKRVSQASDSYYYRAKQAVYRADDYVHEKPWQGIGVGAAVGLVLGLLLARR [P0AEH5]	6.419 ± 0.022	10.1 ± 0.52	–	–	6.88 ± 0.34	5.64 ± 0.42	6.46 ± 0.78	5.99 ± 0.7	14.8 ± 0.89	5.16 ± 1.5	12.6 ± 0.4	> 8
MSNQGEYPEDNRVGKHEPHDLSLTRRDLIKVSAATAATAVVYPHSTLAASVPAATPAPEIMPLTLKVNGKTEQLEVDTRTTLLDTLRENLHLIGTKKGCDHGQCGACTVLVNGRRLNACLTLAVMHQGAEITTIEGLGSPDNLHPMQAAFIKHDGFQCGYCTSGQICSSVAVLKEIQDGIPSHVTVDLVSAPETTADEIRERMSGNICRCGAYANILAAIEDAAGEIKS	2.91 ± 0.9	–	–	–	–	–	–	–	–	–	–	2.02
MSNRKYFGTDGIRGRVGDAPITPDFVLKLGWAAGKVLARHGSRKIIIGKDTRISGYMLESALEAGLAAAGLSALFTGPMPTPAVAYLTRTFRAEAGIVISASHNPFYDNGIKFFSIDGTKLPDAVEEAIEAEMEKEISCVDSAELGKASRIVDAAGRYIEFCKATFPNELSLSELKIVVDCANGATYHIAPNVLRELGANVIAIGCEPNGVNINAEVGATDVRALQARVLAEKADLGIAFDGDGDRVIMVDHEGNKVDGDQIMYIIAREGLRQGQLRGGAVGTLMSNMGLELALKQLGIPFARAKVGDRYVLEKMQEKGWRIGAENSGHVILLDKTTTGDGIVAGLQVLAAMARNHMSLHDLCSGMKMFPQILVNVRYTAGSGDPLEHESVKAVTAEVEAALGNRGRVLLRKSGTEPLIRVMVEGEDEAQVTEFAHRIADAVKAV	6.02 ± 0.36	12.62 ± 0.093	3.24 ± 0.19	6.03 ± 0.15	5.92 ± 0.21	5.71 ± 0.24	6.27 ± 0.035	6.08 ± 0.13	11.8 ± 0.54	6.24 ± 0.16	13.8 ± 0.27	6.65 ± 0.13
